Assay results as given in patent US5882644A, “Monoclonal antibodies specific for the platelet derived growth factor β receptor and methods of use thereof” (Protein Design Labs, Inc., priority 1996, dated 1999).
Numbering of substitutions follows the chain as printed. “Also recorded” adds a separate entry of the source.

B1: muM4TS.22: murine monoclonal antibody to PDGF-R β, variable regions SEQ ID NOS:2 and 4; epitope in third extracellular domain (antibody, V domains shown)
VL: MRVLAELLGLLLFCFLGVRCDIQMNQSPSSLSASLGDTITITCHASQNINVWLSWYQRKPGNIPKLLIYKASNLHTGVPSRFSGSGSGTGFTLTISSLQPEDIATYYCQQGQSFPFTFGSGTKLEIK
VH: MAVLALLLCLVTFPSCALSQVQLKESGPGLVAPSQSLSITCTVSGFSLTNYAINWVRQPPGQGLEWLGIIWTGGGTSYNSALKSRLSISKDNSKSQVFLKMNSLQTDDTARYYCARTGTRGYFFDYWGQGTTLTVSS
B2: HuM4TS.22: humanized muM4TS.22, human IC4 framework, gamma4 constant region; SEQ ID NOS:6 and 8 (antibody, V domains shown)
VL: B1 VL with N25T, L35V, T38R, I39V, R58Q, N62K, I63A, S120G, L124V
VH: MAVLALLLCLVTFPSCALSQVQLQESGPGLVKPSETLSLTCTVSGFSLTNYAINWVRQPPGKGLEWLGIIWTGGGTSYNSALKSRLTISKDTSKNQVSLKLSSVTAADTAVYYCARTGTRGYFFDYWGQGTLVTVSS
B3: HuM4TS.11: humanized muM4TS.11, human III-2R framework, gamma4 constant region; SEQ ID NOS:14 and 16 (antibody, V domains shown)
VL: METDTLLLWVLLLWVPGSTGDIQMTQSPSSLSASVGDRVTITCRASESVDSYGNSFMHWYQQKPGKAPKLLIYRASNLESGIPSRFSGSGSRTDFTLTISSLQPEDVATYYCQQSNEDPPTFGQGTKVEIK
VH: MGWSWIFLFLLSGTAGVHSQVQLVQSGAEVKKPGASVKVSCKASGYTFTNCWMHWVRQAPGQGLEWIGYINPTTGYSEYNQNFKDKATITADKSTSTAYMELSSLRSEDTAVYYCTSNYGHYDWFGNWGQGTLVT

Assays:
[1] = tested on: CHO transfectant cell line expressing PDGF-R β (CHO C4); assay: Inhibition of PDGF BB-induced proliferation (3H-thymidine) of CHO C4 cells; type: cell-based, Chinese hamster; conditions: for inhibition of PDGF BB-induced proliferation: 50 ng/ml PDGF BB, sufficient antibody concentration
Description: To determine the ability of muM4TS.11 and muM4TS.22 to block PDGF-mediated proliferation, a CHO transfectant cell line expressing PDGF-R β (CHO C4) was generated, as described above. Proliferation of this line, as measured by incorporation of ^3 H-thymidine by DNA synthesis, is stimulated several-fold by PDGF BB. The CHO PDGF-R β transfectants were plated in a 96-well tissue culture plate at about 50,000 cells/well in Ham's F-12+10% FCS and incubated for 1-2 days. The medium was removed, and the cells were washed once with serum-free medium (Ham's F-12+1 mg/ml BSA) and incubated in this media for 1-2 days to put them in a quiescent state. The appropriate amount of antibody in serum-free medium was added, and after 1-3 hours, 50 ng/ml PDGF BB was added. After overnight incubation, 1 μCi ^3 H-thymidine was added, and after a final 4 hour incubation, the cells were harvested using a PHD cell harvester (Cambridge Technology) and analyzed with a scintillation counter.

PDGF-R β [2] = assay: Competitive binding with 125I-PDGF BB on transfectant cells expressing PDGF-R β; set-up: species or system human; conditions: 4° C.
Description: To determine the ability of muM4TS.11 and muM4TS.22 to block binding of PDGF BB to PDGF-R β, the following competitive binding experiments were performed. Transfectant cells expressing PDGF-R β were harvested, washed twice with cold DMEM, and resuspended at 10^6 cells/ml in DMEM. The assay was carried out in triplicate by incubating 100 μl of the cell suspension with either: 1) no antibody (to determine total binding); 2) varying concentrations of antibody; or 3) 100 ng cold PDGF BB (to saturate specific binding sites and determine non-specific binding) for 15 minutes at 4° C. Each sample received 1.0 ng ^125 I-labeled PDGF BB, and was incubated for an additional 60 min at 4° C. Unbound ^125 I-labeled PDGF BB was separated from that bound to the cell by layering the sample over a mixture of 80% dibutylphthalate, 20% olive oil in a microfuge tube, and microfuging briefly to pellet the cells through the oil mixture. The tubes were placed in dry ice to freeze the contents, the tip of the tube containing the cell pellet was cut off into a vial, and radioactivity was determined in a gamma counter.
To assess the ability of HuM4TS.22 to block the binding of PDGF BB to its receptor, competitive binding experiments of HuM4TS.22 with ^125 I-PDGF BB were performed according to the method described in Example 3.
To assess the ability of muM4TS.11 and HuM4TS.11 to block the binding of PDGF BB to the PDGF β receptor, competitive binding experiments of these antibodies with ^125 I-PDGF BB were performed according to the method described in Example 3.

PDGF-R β [3] = assay: Competition with 125I-labeled murine antibody tracer on Sp2/0 PDGF-R β transfectant cells; type: binding, human; conditions: Sp2/0 PDGF-R β transfectants; for binding affinity Ka: calculated from competitive binding data
Description: To assess the ability of HuM4TS.22 to compete with muM4TS.22 for receptor binding, increasing concentrations of the two antibodies were respectively incubated on ice for one hour with Sp2/0 PDGF-R β transfectant cells and a fixed amount of tracer ^125 I-labeled muAb. The sample tubes were processed as in the blocking experiment just described.
To assess the ability of HuM4TS.11 to compete with the muAb for receptor binding, increasing concentrations of the two antibodies were respectively incubated on ice for one hour with Sp2/0 PDGF-R β transfectant cells and a fixed amount of tracer ^125 I-labeled M4TS.11. The sample tubes were processed as in the blocking experiment described. […] The binding affinities calculated from the data were: Ka =5×10^8 M^-1 for the muAb and 3×10^7 M^-1 for the HuAb.

[4] = tested on: PDGF-R β deletion fusion proteins; assay: ELISA epitope mapping with PDGF-R β deletion fusion proteins; type: binding, human; conditions: for binding to protein D5 (fifth domain only): separate experiment
Source text: To localize the binding sites of the M4TS antibodies on the PDGF-R, a series of PDGF-R β deletion mutants, each consisting of one or more adjacent domains of the extracellular portion of the receptor, was constructed by standard methods including PCR. The deletion constructs were each cloned into an expression plasmid (FIG. 13A) where they were fused to the constant region of the human lambda-1 immunoglobulin light chain, to facilitate detection in ELISA. The constructs were as follows (see FIG. 13B):
These PDGF-R β deletion fusion proteins were transiently expressed, by transfecting 10 μg of the respective expression plasmids into approximately 10^7 S194 mouse myeloma cells (ATCC TIB 19) using the DEAE-dextran method in accordance with the method described by Queen et al. (1984) Mol. Cell. Biol. 4:1042. After the transfected cells had died (4-5 days) and been removed by centrifugation, the culture supernatants containing the PDGF-R β deletion proteins were used in ELISA assays, 100 μl/well. First, the relative levels of the various PDGF-R β deletion proteins were measured in an ELISA where the plate was coated with goat anti-human lambda antibody (Tago) and the proteins detected with HRP-conjugated goat anti-human lambda antibody. […] To determine the ability of the antibodies to bind to each deletion protein, an ELISA was performed in which goat anti-human lambda antibody was used to coat the plate, followed by the cell supernatant and then 0.1 μg of the appropriate antibody, and then bound antibody detected with HRP-conjugated goat-anti-mouse Ig or goat-anti-human Ig antibody as appropriate (Tago). As a positive control, purified soluble PDGF-R β (Example 1) was coated directly on certain wells of the plate (denoted D1-5 in FIG. 14).

[5] = tested on: PDGF-R β expressed on the cell membrane; assay: Flow cytometry binding to CHO PDGF-R β transfectant cells; set-up: species or system human; conditions: 0.1-1 μg/ml antibody; CHO PDGF-R β transfectants vs untransfected CHO
Description: The cells were washed once in cold PBS and resuspended in 50 μl of PBS containing 10 μg/ml FITC-conjugated goat anti-mouse IgG and incubated for 30 min. After another wash, the cells were fixed by resuspension in 0.25 ml of paraformaldehyde in PBS, and analyzed for fluorescence by flow cytometry on a FACScan (Becton Dickinson).

[6] = tested on: human primary fibroblast cell line AG1523B; assay: Inhibition of PDGF BB-stimulated proliferation of AG1523B fibroblasts; type: cell-based; conditions: 300 ng/ml PDGF BB
PDGF-R β [7] = assay: Flow cytometry (FACS) staining of Sp2/0 transfectant cells expressing PDGF-R β; type: binding, human; conditions: 50 ng antibody; vs untransfected Sp2/0 cells
Description: The cells were washed with cold PBS, incubated for an additional 30 minutes with FITC-labeled goat-anti-human Ig (Tago Immunologicals) and analyzed by flow cytometry (FACS).
The cells were washed with cold PBS, incubated for an additional 30 minutes with FITC-labeled goat-anti-human Ig (Tago Immunologicals) and analyzed by flow cytometry (FACS). […] Neither an irrelevant control antibody nor the FITC-labeled goat antibody alone stained either cell type.

Row | Molecule | inhibition of PDGF BB-induced proliferation [1] | blocking of 125I-PDGF BB binding to PDGF-R β (PDGF-R β [2]) | competition with labeled murine antibody for receptor binding / binding affinity, in words (PDGF-R β [3]) | binding affinity Ka (PDGF-R β [3]) [M⁻¹] | binding to deletion proteins containing only first through second domains ([4]; 0.1 μg antibody) | binding to protein D1-3 ([4]; 0.1 μg antibody) | binding to protein D3 (third domain only) ([4]; 0.1 μg antibody) | binding to protein D5 (fifth domain only) [4] | specific binding to membrane PDGF-R β by flow cytometry [5] | inhibition of stimulation of proliferation by PDGF BB [6] | FACS staining of Sp2/0 PDGF-R β transfectant cells (PDGF-R β [7]) | inhibition of PDGF-mediated proliferation compared with another antibody [1] | binding to deletion proteins containing only first through third domains ([4]; 0.1 μg antibody) | binding to protein D1-4 ([4]; 0.1 μg antibody)
1 | B1 | completely inhibited proliferation of the cells induced by PDGF BB; also recorded: almost completely inhibited the stimulation of proliferation by PDGF BB | competitively blocked binding of PDGF BB to PDGF-R β; also recorded: did have the ability to block binding of PDGF BB to PDGF-R β | competed with equal efficiencies | 2.6e+08 | do not bind | do bind to protein D1-3 | bind to the protein D3 | none of muM4TS.11 and HuM4TS.11, muM4TS.22 and HuM4TS.22 bound to it | specifically bound to CHO PDGF-R β transfectant cells but not to untransfected CHO cells | effectively inhibited the stimulation of proliferation by PDGF BB | – | – | – | –
2 | B2 | almost completely inhibited the stimulation of proliferation by PDGF BB | reduced the binding of radiolabelled PDGF BB ligand to the PDGF-R β transfectant cells to the non-specific level; also recorded: did have the ability to block binding of PDGF BB to PDGF-R β | competed with equal efficiencies | 4e+08 | do not bind | do bind to protein D1-3 | bind to the protein D3 | none of muM4TS.11 and HuM4TS.11, muM4TS.22 and HuM4TS.22 bound to it | – | – | stained the transfectant cells but did not stain untransfected Sp2/0 cells at all | about equally as well as muM4TS.22 | – | –
3 | B3 | almost completely inhibited the stimulation of proliferation by PDGF BB | neither muM4TS.11 nor HuM4TS.11 were able to inhibit binding of PDGF BB to its receptor | competed less well than muM4TS.11 | 3e+07 | – | – | – | none of muM4TS.11 and HuM4TS.11, muM4TS.22 and HuM4TS.22 bound to it | – | – | stained the transfectant cells but did not stain untransfected Sp2/0 cells at all | nearly as well as muM4TS.11; also recorded: about equally well | do not bind | do bind to protein D1-4
